Key:
HER2 = HER2 (Homo sapiens, UniProt P04626); experiment: Phosphorylation state ELISA, BT474 cells; type: cell-based; set-up: BT474 cells were treated for 18 hours with either Protein #21 (100 nM); host or cells: BT474; conditions: 100 nM, 18 hours
HER1/EGFR = experiment: Phosphorylation state ELISA, BT474 cells; type: cell-based, human; conditions: 100 nM, 18 hours
BT474 cells = experiment: BT474 cell proliferation, BrdU-labeling; type: cell-based, human; conditions: cellular assays of Example 6 and screening
Method: Protein #21-His and Protein #23-His, were expressed and purified as described in Example 1. Effects of the recombinant binding proteins on BT474 cell proliferation were determined by measuring DNA synthesis using BrdU-labeling (BrdU, Cell Proliferation ELISA, Roche). Briefly, 10000 BT474 cells were seeded per well in a 96 well plate in 100 ul complete medium and incubated for 24 hours. Recombinant binding proteins or controls were added for an additional 72 hours. BrdU for cell labeling was added for the last 24 hours. Labeled (proliferating) cells were detected according to the manufactures protocol. The data were analyzed using the GraphPad prism software, plotting log [c] on the x-axis against OD450-602 nm on the y-axis. Data were fitted using a non-linear regression fit (log(antagonist) vs. response—Variable slope (four parameters)) deriving IC50 values.
Protein #21 and Protein #21-His were expressed and purified as described in Example 1. Standard BrdU cell proliferation assays were performed, well-known to the person skilled in the art. Briefly, effects on cell proliferation of Protein #21-His, other compounds, or Protein #21-His in combination with other compounds, were determined by measuring DNA synthesis using BrdU-labeling (BrdU, Cell Proliferation ELISA, Roche). Briefly, 10000 cells were seeded per well in a 96 well plate in 100 μl complete medium and incubated for 24 hours. Protein #21-His and/or compounds were added for an additional 72 hours. BrdU for cell labeling was added for the last 24 hours. Labeled (proliferating) cells were detected according to the manufactures protocol. The data were analyzed using the Graph Pad prism software (log [c] vs. OD450-602 nm plot). Data were fitted using a non-linear regression fit (log(antagonist) vs. response—variable slope (four parameters)).

[1] = molecular target: human HER2 and human serum albumin (Homo sapiens, UniProt P02768+P04626); experiment: Surface plasmon resonance simultaneous binding
GXA3039 = experiment: Gastric cancer patient derived tumor xenograft mouse model GXA3039; type: in vivo; conditions: Protein #21 60 mg/kg, antibodies 10 mg/kg, every three days for 6 times
Method: Further, Protein #21 was expressed and purified as described in Example 1. […] All groups were dosed every three days for 6 times. Briefly, tumor fragments were obtained from xenografts in serial passage in nude mice. After removal from donor mice, tumors were cut into fragments (4-5 mm diameter) for subcutaneous implantation. Mice were randomized into groups when tumors reached a volume of approximately 100-120 mm^3. The day of randomization and treatment initiation is designated as day 0 in each experiment. Tumor growth was monitored by two-dimensional measurement with a caliper on the day of randomization and then twice weekly. Relative volumes of individual tumors (individual RTVs) for Day x were calculated by dividing the individual tumor volume on Day x (Tx) by the individual volume of the same tumor on Day 0 (TO) multiplied by 100%. Tumor inhibition for a particular day (T/C in %) was calculated from the ratio of the median RTV values of test versus control groups multiplied by 100%.

[2] = molecular target: extracellular domains of EGFR (Homo sapiens, UniProt P00533); experiment: Surface plasmon resonance interaction with EGFR; type: binding
MAPK1 and MAPK3 = experiment: Phospho-proteome mass spectrometry; type: cell-based; conditions: 100 nM, 18 hours
From the text: Protein #21 was expressed and purified as described in Example 1. […] Cells were then subjected to a phospho-proteome mass-spectrometry analysis as described by Britton, D., et al. (Britton, D., Zen, Y., Quaglia, A., Selzer, S., Mitra, VI., Lössner, C., Jung, S., Bohm, G., Schmid, P., Prefot, P., Hoehle, C., Koncarevic, S., Gee, J., Nicholson, R., Ward, M., Castellano, L., Stebbing, J., Zucht, H. D., Sarker, D., Heaton, N., and Pike, I., 2014. PLOS One 9 (3), e90948). […] At other phosphorylation sites, phosphorylation is increased (772).

HER3 = experiment: Phosphorylation state ELISA, BT474 cells; type: cell-based, human; conditions: 100 nM, 18 hours
[3] = tested on: SKBR-3, SKOV-3, NCI-N87, ZR-75-30, HCC1419, or MDA-MB175; experiment: Induction of apoptosis in further cell lines; type: cell-based
human serum albumin = human serum albumin (Homo sapiens, UniProt P02768); experiment: Size exclusion chromatography coupled to static light scattering with human serum albumin; type: binding; conditions: 30 μM Protein #21, 60 μM human serum albumin, 1:2 mixture in PBS
Method: Protein #21 was expressed and purified as described in Example 1. Size exclusion chromatography coupled to static light scattering (Superdex 200 10/300GL (GE Healthcare), Agilent 1200 (Life Technologies), Wyatt Optilab Trex (RI) and MiniDawnTreos (MALS)) was performed using 30 μM Protein #21, 60 μM human serum albumin (CSL Behring 20% solution was used to purify the monomeric fraction of human serum albumin by size exclusion chromatography on a Superdex 200 26/60 column (GE Healthcare)), or a 1:2 mixture of the two, in PBS.

Foxo3a protein = experiment: Cellular levels of Foxo3a protein in NCI-N87 cells; type: cell-based; conditions: compared to an exposure to PBS only
From the text: Protein #21 was expressed and purified as described in Example 1. […] Cells were then subjected to a phospho-proteome mass-spectrometry analysis as described by Britton, D., et al. (Britton, D., Zen, Y., Quaglia, A., Selzer, S., Mitra, VI., Lössner, C., Jung, S., Bohm, G., Schmid, P., Prefot, P., Hoehle, C., Koncarevic, S., Gee, J., Nicholson, R., Ward, M., Castellano, L., Stebbing, J., Zucht, H. D., Sarker, D., Heaton, N., and Pike, I., 2014. PLOS One 9 (3), e90948).
It is known to the practitioner in the art, that Akt1 phosphorylates Foxo3a, resulting in the degradation of Foxo3a and promotion of cell survival. Inhibition of Act phosphorylation leads to stabilization of Foxo3a and thus increase in Foxo3a levels. At increased levels Foxo3a can translocate to the nucleus and induce apoptosis.

B1: Protein #21: SEQ ID NO: 21; HER2 binding domains (SEQ ID NOs: 16, 17) flanked by two serum albumin binding domains (SEQ ID NO: 14), SEQ ID NO: 9 linkers (protein)
chain: GSDLGKKLLEAARAGQDDEVRELLKAGADVNAKDYFSHTPLHLAARNGHLKIVEVLLKAGADVNAKDFAGKTPLHLAANEGHLEIVEVLLKAGADVNAQDIFGKTPADIAADAGHEDIAEVLQKAAGSPTPTPTTPTPTPTTPTPTPTGSDLGIKLLFAAAKGQDDEVRELLKAGADVNAKDFQGVTPLHIAAQSGHLEIVEVLLKAGADVNAKDVTGDTPLHLAAQHGHLEIVEVLLKAGADVNAQDERGWTPADLAADWGHEDIAEVLQKAAGSPTPTPTTPTPTPTTPTPTPTGSDLGKKLLEAARAGQDDEVRELLKAGADVNAKDEYGLTPLYLATAHGHLEIVEVLLKAGADVNAVDAIGFTPLHLAAFIGHLEIAEVLLKAGADVNAQDKFGKTPADIAAGAGNEDIAEVLQKAAGSPTPTPTTPTPTPTTPTPTPTGSDLGKKLLEAARAGQDDEVRELLKAGADVNAKDYFSHTPLHLAARNGHLKIVEVLLKAGADVNAKDFAGKTPLHLAANEGHLEIVEVLLKAGADVNAQDIFGKTPADIAADAGHEDIAEVLQKAA
modifications: Protein comprising four designed ankyrin repeat domains
HER2 Pan-Phospho-Tyrosine (HER2): 0.04 fold change to PBS
HER1/EGFR Pan-Phospho-Tyrosine (HER1/EGFR): 0.40 fold change to PBS
cellular potency (BT474 cells): high cellular potency
simultaneous binding of human HER2 and human serum albumin [1]: can bind human HER2 and human serum albumin simultaneously
inhibition of tumor growth, first experiment (GXA3039; GXA3039, FIG. 4C): strong inhibition of tumor growth
inhibition of tumor growth, second experiment (GXA3039; GXA3039, FIG. 4D): strong inhibition of tumor growth
interaction with extracellular domains of EGFR [2]: does not interact
phosphorylated peptides that map to MAPK1 and MAPK3 (MAPK1 and MAPK3): considerably downregulated
HER3 Pan-Phospho-Tyrosine (HER3): 0.45 fold change to PBS
potency in inducing apoptosis in further cell lines [3]: high potency in inducing apoptosis
simultaneous binding of two serum albumin molecules (human serum albumin): can bind two serum albumin molecules simultaneously
increase of cellular levels of Foxo3a protein (Foxo3a protein): 2.8 fold
